This note sets out measurements from patent publication US20210113690A1 (BERLIN CHEMIE, published 2021).

For this assay, the target named is T1, LY75 761-780 (human).
T1 construct: Region put together from overlapping 8mers on the array; also called Region 3 (aa761-780)
T1 peptide: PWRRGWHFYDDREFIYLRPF
Briefly: peptide microarray; region identified by signal above the cut off. As to the method:
The peptide microarray analysis was performed by LC Sciences, Houston Tex., in brief the method comprised the following steps: —Contiguous 8mer peptides of LY75 protein having […] spanning residues 216 to 1666 of the full length LY75 protein were synthesized and immobilized on a microarray chip. The chip comprised three panels such that the experiment was performed in triplicate. […] The binding assay was performed under the following conditions:—
The microarray comprising the contiguous peptides in triplicate was washed with 1 mL of binding buffer at 4° C. for 20 min. […] The array was again washed with 0.5 mL of washing buffer at 4° C. for 30 min then incubated with 25 ng/mL anti-human IgG Alexa 647 conjugate in binding buffer (pH 7.0) at 4° C. for 1 hr. The array was again washed with 0.5 mL of washing buffer at 4° C. for 30 min.

B1: LY75_A1 monoclonal antibody (antibody, human IgG1, kappa, V domains shown)
VH: EVQLVESGGGLVKPGGSLRLSCAASGFTYSNAWMSWVRQAPGKGLEWVGRIKSKTDGGTTDYAAPVQGRFTISRDDSKNTLYLQMNSLKTEDTAVYYCTIFGVVSFDYWGQGTLVTVSS
VL: DVQMTQSPSSLSASVGDRVTITCRASQSISDYLSWYQQRPGKAPNLLIYAASNLKTGVPSRFSGSGSGTDFTLTISTLQPEDFATYYCQQSYRSPWTFGQGTKVEIKR
notes: also called LY75A1 antibody; antibody LY75_A1
As for B1, the binding result is given as “binds”.
